# According to publication PMC7954794, “Protein context shapes the specificity of SH3 domain-mediated interactions in vivo” (Nature Communications, 2021):
# B1: MYO5 (protein, UniProt Q04439 1-1219, looked up)
# Myosin-5: MAILKRGARKKVHQEPAKRSANIKKATFDSSKKKEVGVSDLTLLSKISDEAINENLKKRFLNATIYTYIGHVLISVNPFRDLGIYTDAVMNEYKGKNRLEVPPHVFAIAESMYYNMKSYNENQCVIISGESGAGKTEAAKRIMQYIAAASSTHTESIGKIKDMVLATNPLLESFGCAKTLRNNNSSRHGKYLEIKFNNQFEPCAGNITNYLLEKQRVVSQIKNERNFHIFYQFTKGASDAYRQTFGVQKPEQYVYTAAAGCISAETIDDLQDYQETLKAMRVIGLGQEEQDQIFRMLAAILWIGNVSFIENEEGNAQVRDTSVTDFVAYLLQIDSQLLIKSLVERIMETNHGMKRGSVYHVPLNIVQADAVRDALAKAIYNNLFDWIVSRVNKSLQAFPGAEKSIGILDIYGFEIFEHNSFEQICINYVNEKLQQIFIQLTLKSEQETYEREKIQWTPIKYFDNKVVCDLIEARRPPGIFAAMNDSVATAHADSNAADQAFAQRLNLFTTNPHFDLRSNKFVIKHYAGDVTYDIDGITDKNKDQLQKDLVELIGTTTNTFLATIFPDTVDRESKRRPPTAGDKIIKSANDLVETLSKAQPSYIRTIKPNETKSPNDYDDRQVLHQIKYLGLQENVRIRRAGFAYRQVFEKFVERFYLLSPHCSYAGDYTWQGDTLDAVKYILQDSSIPQQEYQLGVTSVFIKTPETLFALEHMRDRYWHNMAARIQRAWRRFLQRRIDAATKIQRTIRERKEGNKYEKLRDYGTKVLGGRKERRSMSLLGYRAFMGDYLSCNESKSKGAYIKRQVSIKEKVIFSIHGEALHTKFGRSAQRLKKTFLLTPTTLYIVGQTLVQNAMTYTQDYKIDVRNIQAVSLTNLQDDWVAIKLASSGQPDPLINTYFKTELITHLKRLNDKIQIKIGSAIEYQKKPGKLHSVKCQINESAPKYGDIYKSSTISVRRGNPPNSQVHKKPRKKSSISSGYHASSSQATRRPVSIAAAQHVPTAPASRHSKKPAPPPPGMQNKAATRRSVPNPASTLTASQSNARPSPPTAATRATPAATPAAAAMGSGRQANIPPPPPPPPPSSKPKEPMFEAAYDFPGSGSPSELPLKKGDVIYITREEPSGWSLGKLLDGSKEGWVPTAYMKPHSGNNNIPTPPQNRDVPKPVLNSVQHDNTSANVIPAAAQASLGDGLANALAARANKMRLESDDEEANEDEEEDDW
# System: Abp1 PPIs
# Assay: DHFR-PCA of Abp1 SH3-swapped baits (Fig. 2B-D, S2C, S2F);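 as to Protein-protein interaction distance between Abp1 SH3-swapped baits, to ABP1: Euclidean distance between DHFR-PCA score profiles of the baits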;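 as to Protein-protein interaction distance between Abp1 SH3-swapped baits, to BEM1-2: Euclidean distance between DHFR-PCA score profiles of the baits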;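 as to Protein-protein interaction distance between Abp1 SH3-swapped baits, to BOI1: Euclidean distance between DHFR-PCA score profiles of the baits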;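 as to Protein-protein interaction distance between Abp1 SH3-swapped baits, to BZZ1-1: Euclidean distance between DHFR-PCA score profiles of the baits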
# Format: cell-based, Saccharomyces cerevisiae
# Procedure, shortened: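 Yeast DHFR-PCA in which Abp1 baits, carrying their SH3 replaced by CRISPR–Cas9 with one of 27 yeast SH3s or human CTTN, HCLS1 or DBNL SH3s, were mated against 575 SH3-associated DHFR F[3] preys plus 40 negative controls. Four tests were run per PPI. Diploids were selected twice (48 h, 30 °C), then grown 4 days on PCA selection media.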
# [1] = number of PPIs, difference, Abp1 SH3-swapped with the listed SH3, Fig2D,S2F
molecule,measurement,setting,value
B1,"Protein-protein interaction distance between Abp1 SH3-swapped baits, to ABP1","Abp1 bait with swapped SH3, distance to bait with ABP1 SH3, sheet Fig2C",12.37
same,"Protein-protein interaction distance between Abp1 SH3-swapped baits, to BBC1","distance to Abp1 bait with BBC1 SH3, sheet Fig2C",12.56
same,"Protein-protein interaction distance between Abp1 SH3-swapped baits, to BEM1-1","distance to Abp1 bait with BEM1-1 SH3, sheet Fig2C",17.04
same,"Protein-protein interaction distance between Abp1 SH3-swapped baits, to BEM1-2","distance to Abp1 bait with BEM1-2 SH3, sheet Fig2C",34.62
same,"Protein-protein interaction distance between Abp1 SH3-swapped baits, to BOI1","distance to Abp1 bait with BOI1 SH3, sheet Fig2C",14.33
same,"Protein-protein interaction distance between Abp1 SH3-swapped baits, to BOI2","distance to Abp1 bait with BOI2 SH3, sheet Fig2C",17.59
same,"Protein-protein interaction distance between Abp1 SH3-swapped baits, to BUD14","distance to Abp1 bait with BUD14 SH3, sheet Fig2C",20.27
same,"Protein-protein interaction distance between Abp1 SH3-swapped baits, to BZZ1-1","distance to Abp1 bait with BZZ1-1 SH3, sheet Fig2C",9.674
same,"Protein-protein interaction distance between Abp1 SH3-swapped baits, to BZZ1-2","distance to Abp1 bait with BZZ1-2 SH3, sheet Fig2C",13.83
same,"Protein-protein interaction distance between Abp1 SH3-swapped baits, to CDC25","distance to Abp1 bait with CDC25 SH3, sheet Fig2C",28.8
same,"Protein-protein interaction distance between Abp1 SH3-swapped baits, to CTTN","distance to Abp1 bait with CTTN SH3, sheet Fig2C",14.85
same,"Protein-protein interaction distance between Abp1 SH3-swapped baits, to CYK3","distance to Abp1 bait with CYK3 SH3, sheet Fig2C",29.49
same,"Protein-protein interaction distance between Abp1 SH3-swapped baits, to DBNL","distance to Abp1 bait with DBNL SH3, sheet Fig2C",9.722
same,"Protein-protein interaction distance between Abp1 SH3-swapped baits, to FUS1","distance to Abp1 bait with FUS1 SH3, sheet Fig2C",21.47
same,"Protein-protein interaction distance between Abp1 SH3-swapped baits, to HCLS1","distance to Abp1 bait with HCLS1 SH3, sheet Fig2C",10.37
same,"Protein-protein interaction distance between Abp1 SH3-swapped baits, to HOF1","distance to Abp1 bait with HOF1 SH3, sheet Fig2C",33.29
same,"Protein-protein interaction distance between Abp1 SH3-swapped baits, to HSE1","distance to Abp1 bait with HSE1 SH3, sheet Fig2C",10.84
same,"Protein-protein interaction distance between Abp1 SH3-swapped baits, to LSB1","distance to Abp1 bait with LSB1 SH3, sheet Fig2C",7.822
same,"Protein-protein interaction distance between Abp1 SH3-swapped baits, to LSB3","distance to Abp1 bait with LSB3 SH3, sheet Fig2C",8.063
same,"Protein-protein interaction distance between Abp1 SH3-swapped baits, to MYO3","distance to Abp1 bait with MYO3 SH3, sheet Fig2C",5.861
same,"Protein-protein interaction distance between Abp1 SH3-swapped baits, to MYO5","distance to Abp1 bait with MYO5 SH3, sheet Fig2C",0.00
same,"Protein-protein interaction distance between Abp1 SH3-swapped baits, to NBP2","distance to Abp1 bait with NBP2 SH3, sheet Fig2C",19.41
same,"Protein-protein interaction distance between Abp1 SH3-swapped baits, to PEX13","distance to Abp1 bait with PEX13 SH3, sheet Fig2C",7.969
same,"Protein-protein interaction distance between Abp1 SH3-swapped baits, to PIN3","distance to Abp1 bait with PIN3 SH3, sheet Fig2C",6.67
same,"Protein-protein interaction distance between Abp1 SH3-swapped baits, to RVS167","distance to Abp1 bait with RVS167 SH3, sheet Fig2C",7.689
same,"Protein-protein interaction distance between Abp1 SH3-swapped baits, to SDC25","distance to Abp1 bait with SDC25 SH3, sheet Fig2C",35.29
same,"Protein-protein interaction distance between Abp1 SH3-swapped baits, to SHO1","distance to Abp1 bait with SHO1 SH3, sheet Fig2C",10.26
same,"Protein-protein interaction distance between Abp1 SH3-swapped baits, to SLA1-1","distance to Abp1 bait with SLA1-1 SH3, sheet Fig2C",31.36
same,"Protein-protein interaction distance between Abp1 SH3-swapped baits, to SLA1-2","distance to Abp1 bait with SLA1-2 SH3, sheet Fig2C",22.13
same,"Protein-protein interaction distance between Abp1 SH3-swapped baits, to SLA1-3","distance to Abp1 bait with SLA1-3 SH3, sheet Fig2C",7.257
same,"Protein-protein interaction distance between Abp1 SH3-swapped baits, to YSC84","distance to Abp1 bait with YSC84 SH3, sheet Fig2C",8.128
same,PPIs gained by Abp1 - SH3-dependent PPIs gained by Abp1,[1],27
same,SH3-dependent PPIs - SH3-dependent PPIs gained by Abp1,[1],16
same,SH3-dependent PPIs gained by Abp1,"number of PPIs, Abp1 SH3-swapped with the listed SH3, DHFR-PCA, Fig2D,S2F",3
